Test results published in US20230053214A1 (MACQUARIE UNIVERSITY, published 2023).
Numbering of substitutions follows the chain as printed. Names and notes keep the numbering of the source.

B1: human wild-type p38γ (HA-tagged) (enzyme)
chain: MSSPPPARSGFYRQEVTKTAWEVRAVYRDLQPVGSGAYGAVCSAVDGRTGAKVAIKKLYRPFQSELFAKRAYRELRLLKHMRHENVIGLLDVFTPDETLDDFTDFYLVMPFMGTDLGKLMKHEKLGEDRIQFLVYQMLKGLRYIHAAGIIHRDLKPGNLAVNEDCELKILDFGLARQADSEMTGYVVTRWYRAPEVILNWMRYTQTVDIWSVGCIMAEMITGKTLFKGSDHLDQLKEIMKVTGTPPAEFVQRLQSDEAKNYMKGLPELEKKDFASILTNASPLAVNLLEKMLVLDAEQRVTAGEALAHPYFESLHDTEDEPQVQKYDDSFDDVDRTLDEWKRVTYKEVLSFKPPRQLGARVSKETPL
notes: Recombinant p38γ from bacteria was used in the in vitro kinase assays; also called p38γ WT; wild-type p38γ (WT); not shown: N-terminal HA-tag
B2: constitutive active p38γ (D179A), HA-tagged (enzyme)
chain: B1 chain with D179A
notes: also called p38γ^CA; p38γ CA; not shown: N-terminal HA-tag
B3: WT p38γ with deletion of the C-terminal PDZ-binding motif (ΔPm) (enzyme)
chain: MSSPPPARSGFYRQEVTKTAWEVRAVYRDLQPVGSGAYGAVCSAVDGRTGAKVAIKKLYRPFQSELFAKRAYRELRLLKHMRHENVIGLLDVFTPDETLDDFTDFYLVMPFMGTDLGKLMKHEKLGEDRIQFLVYQMLKGLRYIHAAGIIHRDLKPGNLAVNEDCELKILDFGLARQADSEMTGYVVTRWYRAPEVILNWMRYTQTVDIWSVGCIMAEMITGKTLFKGSDHLDQLKEIMKVTGTPPAEFVQRLQSDEAKNYMKGLPELEKKDFASILTNASPLAVNLLEKMLVLDAEQRVTAGEALAHPYFESLHDTEDEPQVQKYDDSFDDVDRTLDEWKRVTYKEVLSFKPPRQLGARVSK
notes: also called p38γ ΔPm; ΔPDZm; not shown: N-terminal HA-tag
B4: CA p38γ with deletion of the C-terminal PDZ-binding motif (ΔPm) (enzyme)
chain: B3 chain with D179A
notes: also called p38γ^CA ΔPm; ΔPDZm; not shown: N-terminal HA-tag

Tests used:
[1] = target: T1, rat PSD95 (FLAG-PSD-95), expressed in transfected cells (rat, UniProt P31016 1-724); assay: co-IP from transfected cells, immunoblot
T1 construct: eGFP-PSD-95 (293T lysate) was used for microscale thermophoresis and PSD-95 internally tagged with mCherry for FLIM/FRET; not shown: FLAG tag
T1 sequence (P31016 whole entry): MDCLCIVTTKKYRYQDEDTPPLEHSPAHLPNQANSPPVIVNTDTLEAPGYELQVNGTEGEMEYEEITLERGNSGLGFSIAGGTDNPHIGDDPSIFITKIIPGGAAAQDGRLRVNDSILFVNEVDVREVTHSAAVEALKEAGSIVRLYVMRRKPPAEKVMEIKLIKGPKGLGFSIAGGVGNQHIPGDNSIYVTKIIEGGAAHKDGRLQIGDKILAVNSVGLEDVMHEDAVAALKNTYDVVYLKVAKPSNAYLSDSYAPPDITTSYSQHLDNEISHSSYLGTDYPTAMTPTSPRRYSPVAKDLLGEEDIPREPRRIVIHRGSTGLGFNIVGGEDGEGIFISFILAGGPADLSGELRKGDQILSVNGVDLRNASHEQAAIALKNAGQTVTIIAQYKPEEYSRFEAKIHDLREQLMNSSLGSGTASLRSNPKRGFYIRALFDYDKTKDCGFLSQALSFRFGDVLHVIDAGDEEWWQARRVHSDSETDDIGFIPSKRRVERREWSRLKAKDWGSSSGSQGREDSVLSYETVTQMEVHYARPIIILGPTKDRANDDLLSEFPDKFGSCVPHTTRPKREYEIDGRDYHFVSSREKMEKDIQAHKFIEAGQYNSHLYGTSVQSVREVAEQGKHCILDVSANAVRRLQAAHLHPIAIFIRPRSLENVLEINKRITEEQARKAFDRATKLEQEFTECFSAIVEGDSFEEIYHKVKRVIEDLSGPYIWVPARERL

[2] = target: T2, human tau (441 amino acids), wild-type (human, UniProt P10636 1-758); assay: co-IP with V5-tagged tau from transfected cells, immunoblot
T2 construct: Expressed in transfected cells for co-IP; GST-tau (E. coli) was used for microscale thermophoresis and GST pulldown, eGFP-tau for FLIM/FRET, recombinant tau for kinase assays; also called hTau40; WT tau; not shown: V5 tag from vector pcDNA3.2/V5-DEST
T2 sequence (P10636 other isoform, or with tags, fused parts or gaps): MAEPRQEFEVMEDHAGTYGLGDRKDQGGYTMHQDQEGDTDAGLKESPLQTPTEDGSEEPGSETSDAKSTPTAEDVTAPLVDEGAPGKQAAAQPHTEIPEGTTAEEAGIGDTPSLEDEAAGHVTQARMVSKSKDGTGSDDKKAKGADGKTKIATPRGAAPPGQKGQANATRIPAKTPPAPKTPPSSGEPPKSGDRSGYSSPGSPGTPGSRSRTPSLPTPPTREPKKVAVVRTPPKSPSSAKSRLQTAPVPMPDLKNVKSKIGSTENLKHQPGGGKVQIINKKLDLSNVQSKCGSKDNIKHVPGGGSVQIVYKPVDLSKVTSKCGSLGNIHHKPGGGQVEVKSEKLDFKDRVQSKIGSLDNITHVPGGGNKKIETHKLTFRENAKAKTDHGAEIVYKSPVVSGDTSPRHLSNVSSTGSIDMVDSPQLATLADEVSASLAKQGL

[3] = target: T1, rat PSD95 (FLAG-PSD-95), expressed in …; assay: co-IP with PSD-95 from transfected cells, immunoblot

| binding result [1] | binding result [2] | binding result [3] | Binder |
| --- | --- | --- | --- |
| binds | binds |  | B1 |
| binds | binds |  | B2 |
|  |  | no binding | B3 |
|  |  | no binding | B4 |
